Results published in the supplement of paper PMC10567573.
± gives the standard deviation.

Assay: protein stability index of a GFP-peptide fusion (GPS, HEK-293T) (PSI 1-6); higher = more stable
Details: c terminus: a fixed tail appended
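Note: 24-mer peptide tiles fused after GFP, lentivirally expressed, FACS-sorted into six equal bins by GFP/DsRed ratio, decoded by Illumina sequencing, PSI is the read-weighted mean bin number.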

RWETSSWSECSRTCGEGYQFRVVR [ADAMTSL2]
protein stability index (treatment: DMSO): 2.5 ± 0.84
protein stability index (treatment: MLN4924 1 uM, 8 h): 2.21 ± 0.35

ELDEEEVKAATTEPTEVEEVVPAL [BCL2L13]
protein stability index (treatment: DMSO): 5.44 ± 0.28
protein stability index (treatment: MLN4924 1 uM, 8 h): 5.54 ± 0.13

GKTPTVRAALICLTLVLVASVLLQ [CD207]
protein stability index (treatment: DMSO): 3.17 ± 0.16
protein stability index (treatment: MLN4924 1 uM, 8 h): 3.11 ± 0.76

FMHENLYFTNRKVNSVCWASLNHL [DCAF4]
protein stability index (treatment: DMSO): 2.69 ± 0.48
protein stability index (treatment: MLN4924 1 uM, 8 h): 2.46 ± 0.53

QDEPRQGCQPEDRRRRIIINVGGI [KCNG1]
protein stability index (treatment: DMSO): 3.92 ± 0.33
protein stability index (treatment: MLN4924 1 uM, 8 h): 4.02 ± 0.2

PADGWKGERPRSEEDNELNLPNLA [GCH1]
protein stability index (treatment: DMSO): 5.33 ± 0.34
protein stability index (treatment: MLN4924 1 uM, 8 h): 5.36 ± 0.35

PKNREYDRFYVINYLVRLSFHNLK [ZNF277]
protein stability index (treatment: DMSO): 3.03 ± 1.2
protein stability index (treatment: MLN4924 1 uM, 8 h): 2.29 ± 0.31

TGVQEVLSALLRATPGEYSVNICG [SPAG8]
protein stability index (treatment: DMSO): 2.5 ± 0.59
protein stability index (treatment: MLN4924 1 uM, 8 h): 2.23 ± 0.16

MVGQKDSVILSVKFSPFGQWWASV [TLE6]
protein stability index (treatment: DMSO): 2.95 ± 0.35
protein stability index (treatment: MLN4924 1 uM, 8 h): 2.89 ± 0.35

ERHLVEIKQKLGMNLMNELKQNFS [TPD52L1]
protein stability index (treatment: DMSO): 3.04 ± 0.2
protein stability index (treatment: MLN4924 1 uM, 8 h): 2.71 ± 0.41

EEGVVGGLSGGALSPLRAASDPLL [TFE3]
protein stability index (treatment: DMSO): 4.33 ± 0.31
protein stability index (treatment: MLN4924 1 uM, 8 h): 4.63 ± 0.4

GTSHGAPPARGPRMSYGGSTCHAY [RBMY1A1]
protein stability index (treatment: DMSO): 3.79 ± 0.22
protein stability index (treatment: MLN4924 1 uM, 8 h): 3.77 ± 0.21

GLLQDQGSGLSSRFEEPKGPPARQ [CBY2]
protein stability index (treatment: DMSO): 4.89 ± 0.29
protein stability index (treatment: MLN4924 1 uM, 8 h): 5.09 ± 0.23

DPQNGFDVNNLDPDLRSLFSRAGI [WAS]
protein stability index (treatment: DMSO): 3.93 ± 0.3
protein stability index (treatment: MLN4924 1 uM, 8 h): 3.81 ± 0.32

ILTSQPGKEVVKQLEEGLKDTDLA [M1AP]
protein stability index (treatment: DMSO): 5.05 ± 0.28
protein stability index (treatment: MLN4924 1 uM, 8 h): 5.17 ± 0.17

AGFTGSGPIQLWQFLLELLSDKSC [ETS2]
protein stability index (treatment: DMSO): 2.27 ± 0.19
protein stability index (treatment: MLN4924 1 uM, 8 h): 2.12 ± 0.41

AMEKFREDEGFLREEERPLPRRDF [KCNA3]
protein stability index (treatment: DMSO): 4.74 ± 0.23
protein stability index (treatment: MLN4924 1 uM, 8 h): 4.74 ± 0.17

LLYNRSNNKYSYTSNSDDNMLKNI [KCTD10]
protein stability index (treatment: DMSO): 2.52 ± 0.28
protein stability index (treatment: MLN4924 1 uM, 8 h): 2.74 ± 0.6

SHECKPEGYEFCHNRKVLTIFSAS [PPEF2]
protein stability index (treatment: DMSO): 2.73 ± 0.38
protein stability index (treatment: MLN4924 1 uM, 8 h): 2.76 ± 0.17

CEEEVFPLAMNYLDRFLSLEPVKK [CCND1]
protein stability index (treatment: DMSO): 3.36 ± 0.16
protein stability index (treatment: MLN4924 1 uM, 8 h): 3.3 ± 0.28

MGLVETKLAIIPGGGGTQRLPRAI [AUH]
protein stability index (treatment: DMSO): 2.99 ± 0.82
protein stability index (treatment: MLN4924 1 uM, 8 h): 3.34 ± 0.35

IHTGIKPHQCSECGRAFSRKSLLV [ZNF649]
protein stability index (treatment: DMSO): 2.56 ± 0.37
protein stability index (treatment: MLN4924 1 uM, 8 h): 2.18 ± 0.4

METLCLRASFWLALVGCVISDNPE [EDNRA]
protein stability index (treatment: DMSO): 3.25 ± 0.19
protein stability index (treatment: MLN4924 1 uM, 8 h): 2.7 ± 0.75

NYRIAGARLMRSNYPPPLSSAALR [C6orf223]
protein stability index (treatment: DMSO): 3.16 ± 0.41
protein stability index (treatment: MLN4924 1 uM, 8 h): 3.2 ± 0.3

LSFAAKQRELHSHVTNAMVLVNVL [DHCR7]
protein stability index (treatment: DMSO): 2.49 ± 0.77
protein stability index (treatment: MLN4924 1 uM, 8 h): 2.44 ± 0.79

TLGGELGALEALELSPPLSPASHV [FOXJ1]
protein stability index (treatment: DMSO): 4.12 ± 0.3
protein stability index (treatment: MLN4924 1 uM, 8 h): 4.26 ± 0.098

LANACLPVRTTNKISKQFVAPADV [ZSWIM9]
protein stability index (treatment: DMSO): 3.27 ± 0.2
protein stability index (treatment: MLN4924 1 uM, 8 h): 3.5 ± 0.21

GTVIGVTSCIVIILIIISVIVQIK [NETO1]
protein stability index (treatment: DMSO): 3.16 ± 0.34
protein stability index (treatment: MLN4924 1 uM, 8 h): 3.02 ± 0.36

MASTTTCTRFTDEYQLFEELGKGA [CAMK2D]
protein stability index (treatment: DMSO): 3.74 ± 0.38
protein stability index (treatment: MLN4924 1 uM, 8 h): 3.64 ± 0.29

LHALKLRSPDASPSRAPPSTQEPQ [GNAS]
protein stability index (treatment: DMSO): 4.54 ± 0.25
protein stability index (treatment: MLN4924 1 uM, 8 h): 4.65 ± 0.1

SQSSTYRGTYEQDGRFEKRQGNPS [ZNF396]
protein stability index (treatment: DMSO): 4.74 ± 0.3
protein stability index (treatment: MLN4924 1 uM, 8 h): 4.79 ± 0.31

LPEAPPKKFLTLGSKFRYSGRTQA [EPB41L3]
protein stability index (treatment: DMSO): 3 ± 0.28
protein stability index (treatment: MLN4924 1 uM, 8 h): 3.18 ± 0.39

QSPTLEFLLRNSQRTVGQLMELCR [EDARADD]
protein stability index (treatment: DMSO): 2.49 ± 0.21
protein stability index (treatment: MLN4924 1 uM, 8 h): 2.56 ± 0.26

VAGEGVRRKGEMGLSAEDGVWAVI [TRIM15]
protein stability index (treatment: DMSO): 2.51 ± 0.22
protein stability index (treatment: MLN4924 1 uM, 8 h): 2.55 ± 0.2

QMKQKVQSLYQEVFGRLRDENGRP [NFE2L1]
protein stability index (treatment: DMSO): 2.66 ± 0.35
protein stability index (treatment: MLN4924 1 uM, 8 h): 3.65 ± 0.48

DYSRPLHISTFINELDSGFRLLNL [TSN]
protein stability index (treatment: DMSO): 2.11 ± 0.27
protein stability index (treatment: MLN4924 1 uM, 8 h): 2.21 ± 0.088
